Data taken from paper PMC3948114.

biological target: HLA-B*27:05-KK10 tetramer; experiment: tetramer staining of transfected HEK293 cells; details: 0.2 μg tetramer; parent: est. 100; read off a plot

Row | Substance | percent of parent
1 | FLAG-tagged 3DL1*001 (from UniProt P43629) A167G | 76 % of ·001
2 | FLAG-tagged 3DL1*001 (from UniProt P43629) D230A | 30 % of ·001
3 | FLAG-tagged 3DL1*001 (from UniProt P43629) E282A | 22 % of ·001
4 | FLAG-tagged 3DL1*001 (from UniProt P43629) E282Q | 44 % of ·001
5 | FLAG-tagged 3DL1*001 (from UniProt P43629) L166A | 180 % of ·001
6 | FLAG-tagged 3DL1*001 (from UniProt P43629) L166V | 20 % of ·001
7 | FLAG-tagged 3DL1*001 (from UniProt P43629) M165A | 52 % of ·001
8 | FLAG-tagged 3DL1*001 (from UniProt P43629) P199A | 10 % of ·001
9 | FLAG-tagged 3DL1*001 (from UniProt P43629) Y200A | 8 % of ·001
10 | FLAG-tagged 3DL1*001 (from UniProt P43629) Y200F | 36 % of ·001
